Usually Kd stands for the equilibrium constant for the complex coming apart.

Where a chain is given by its changes, count along the chain named. Numbers in names are those of the source. Where “and” joins values, the source holds several entries; their conditions need not be identical. Identical values can stand only once. Like-named read-outs stand apart in the source and are kept apart here.

The text below walks through data of patent US20140056895 (published 2014).

Assay [1] has as its target T1, IL13 (human, UniProt P35225). Kind of assay: SPR. A general note: In SPR one partner is held on a chip, and binding of the other changes the refractive index at the surface.
Assay [2] addresses T1, IL13. The experiment in a line: SPR. The source holds these as a separate data set.
Assay [3] deals with T1, IL13. Kind of assay: SPR. This is another data set of the same source.
The target in assay [4] is T1, IL13. The experiment in a line: SPR. This is another data set of the same source.
Assay [5] deals with T1, IL13. Kind of assay: SPR. The source holds these as a separate data set.
The next assay addresses EGFR (human, UniProt P00533). Kind of assay: SPR.
In assay [6] the target is T2, IL4 (human, UniProt P05112).
T2 chain: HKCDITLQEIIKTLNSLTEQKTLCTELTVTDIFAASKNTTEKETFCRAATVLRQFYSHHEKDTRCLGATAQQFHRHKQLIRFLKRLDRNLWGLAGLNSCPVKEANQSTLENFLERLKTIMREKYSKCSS

Assay [7] addresses T1, IL13.
The target of assay [8] is T2, IL4. Kind of assay: SPR.
Assay [9] addresses T2, IL4. Kind of assay: SPR.
Assay [10] addresses T2, IL4. Kind of assay: SPR.
Assay [11] deals with T2, IL4. Kind of assay: SPR.
The target in assay [12] is T2, IL4. The experiment in a line: SPR.

T1 sequence (P35225 35-146): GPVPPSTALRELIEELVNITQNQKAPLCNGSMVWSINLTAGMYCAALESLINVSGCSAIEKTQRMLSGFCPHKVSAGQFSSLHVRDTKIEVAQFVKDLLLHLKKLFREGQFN

B1: CODV-Ig heavy-chain template (batches 201-270, 501-508, 704, 801), IL13 arm (antibody, V domains shown)
VH: EVQLKESGPGLVAPGGSLSITCTVSGFSLTDSSINWVRQPPGKGLEWLGMIWGDGRIDYADALKSRLSISKDSSKSQVFLEMTSLRTDDTATYYCARDGYFPYAMDFWGQGTSVTVSS
VL: DIVLTQSPASLAVSLGQRATISCRASESVDSYGQSYMHWYQQKAGQPPKLLIYLASNLESGVPARFSGSGSRTDFTLTIDPVQAEDAATYYCQQNAEDSRTFGGGTKLEIK
As to B1, the Kd with IL13 [1] and with IL13 [2] was 0.025 nM in each case.

B2: CODV-Ig Fc cysteine variants (602, 603), IL13 arm (antibody, V domains shown)
VH: B1 VH
VL: B1 VL
For B2, the Kd with IL13 [3] was 0.064 nM and 0.1 nM.

B3: parental anti-IL13 mAb (B-B13 humanized) (antibody, V domains shown)
VH: B1 VH
VL: B1 VL
The molecule B3 registered a Kd with IL13 [4] of 0.0818 nM.

B4: CODV-Ig LC4:HC6, IL13 arm (antibody, V domains shown)
VH: B1 VH
VL: B1 VL
As for B4, the affinity in the assay with IL13 [4], expressed as Kd, was 0.118 nM.

B5: CODV-Ig LC4:HC4, IL13 arm (antibody, V domains shown)
VH: B1 VH
VL: B1 VL
Take B5: the Kd in the assay with IL13 [4] came to 0.0934 nM.

B6: CODV-Fab 421, IL13 arm (antibody, V domains shown)
VH: B1 VH
VL: B1 VL
In the assay with IL13 [5], B6 displayed a Kd of 0.048 nM.

B7: CODV-Fab 413, EGFR arm (antibody)
chain 1: not shown
chain 2: EIVLTQSPGTLSVSPGERATLSCRASQSIGSSLHWYQQKPGQAPRLLIKYASQSLSGIPDRFSGSGSGTDFTLTISRLEPEDFAVYYCHQSSRLPHTFGQGTKVEIKGGGGGGGEIVMTQSPATLSLSPGERATLSCRASQSVSSYLAWYQQKPGQAPRLLIYDASNRATGIPARFSGSGSGTDFTLTISSLEPEDFAVYYCHQYGSTPLTFGGGTKAEIKGGGGGRTVAAPSVFIFPPSDEQLKSGTASVVCLLNNFYPREAKVQWKVDNALQSGNSQESVTEQDSKDSTYSLSSTLTLSKADYEKHKVYACEVTHQGLSSPVTKSFNRGEC
As to B7, binding in the assay with EGFR was put at a Kd of 42 nM.

B8: CODV-Ig 411 HC13/LC13, EGFR arm (antibody)
chain 1: not shown
chain 2: B7 chain 2
As to B8, binding with EGFR was put at a Kd of 124 nM.

B9: Cross-over IL4(G4S2)IL13CH1-Fc / IL13(G4S2)IL4CL (antibody)
chain 1: not shown
chain 2: DIVLTQSPASLAVSLGQRATISCRASESVDSYGQSYMHWYQQKAGQPPKLLIYLASNLESGVPARFSGSGSRTDFTLTIDPVQAEDAATYYCQQNAEDSRTFGGGTKLEIKGGGGSGGGGSDIQMTQSPASLSVSVGDTITLTCHASQNIDVWLSWFQQKPGNIPKLLIYKASNLHTGVPSRFSGSGSGTGFTLTISSLQPEDIATYYCQQAHSYPFTFGGGTKLEIKRTVAAPSVFIFPPSDEQLKSGTASVVCLLNNFYPREAKVQWKVDNALQSGNSQESVTEQDSKDSTYSLSSTLTLSKADYEKHKVYACEVTHQGLSSPVTKSFNRGEC
Take B9: the binding result with IL4 [6] and with IL13 [7] was “no binding” throughout.

B10: Cross-over IL4(G4S)IL13CH1-Fc / IL13(G4S2)IL4CL (antibody)
chain 1: not shown
chain 2: B9 chain 2
As to B10, in the assay with IL13 [7], the binding result is “no binding”.

B11: CODV-Ig LC4:HC4, IL4 arm (antibody, V domains shown)
VH: QVQLQQSGPELVKPGASVKISCKASGYSFTSYWIHWIKQRPGQGLEWIGMIDPSDGETRLNQRFQGRATLTVDESTSTAYMQLRSPTSEDSAVYYCTRLKEYGNYDSFYFDVWGAGTLVTVSS
VL: DIQMTQSPASLSVSVGDTITLTCHASQNIDVWLSWFQQKPGNIPKLLIYKASNLHTGVPSRFSGSGSGTGFTLTISSLQPEDIATYYCQQAHSYPFTFGGGTKLEIKR
The molecule B11 displayed a Kd with IL4 [8] of 0.00914 nM.

B12: CODV-Ig LC4:HC6, IL4 arm (antibody, V domains shown)
VH: B11 VH
VL: B11 VL
Molecule B12 gave a Kd in the assay with IL4 [8] of 0.0111 nM.

B13: CODV-Ig heavy-chain template (batches 201-270, 501-508, 704, 801), IL4 arm (antibody, V domains shown)
VH: B11 VH
VL: B11 VL
Take B13: the Kd with IL4 [9] and with IL4 [10] was 0.003 nM each time.

B14: parental anti-IL4 mAb (8D4 humanized) (antibody, V domains shown)
VH: B11 VH
VL: B11 VL
With B14, the Kd in the assay with IL4 [8] was determined as 0.00783 nM.

B15: CODV 706, IL4 arm (antibody, V domains shown)
VH: B11 VH with G44C
VL: B11 VL with G100C
In turn, B15 displayed a Kd with IL4 [9] of 0.008 nM.

B16: CODV-Fab 421, IL4 arm (antibody, V domains shown)
VH: B11 VH
VL: B11 VL
For the molecule B16, in the assay with IL4 [11], binding was characterised by a dissociation constant (Kd) of 0.012 nM.

B17: CODV-Ig Fc cysteine variants (602, 603), IL4 arm (antibody, V domains shown)
VH: B11 VH
VL: B11 VL
Turning to B17, the Kd with IL4 [12] is 0.004 nM and 0.01 nM.

B18: Cross-over IL4(G4S)IL13CH1-Fc / IL13(G4S)IL4CL (antibody)
chain 1: not shown
chain 2: DIVLTQSPASLAVSLGQRATISCRASESVDSYGQSYMHWYQQKAGQPPKLLIYLASNLESGVPARFSGSGSRTDFTLTIDPVQAEDAATYYCQQNAEDSRTFGGGTKLEIKGGGGSDIQMTQSPASLSVSVGDTITLTCHASQNIDVWLSWFQQKPGNIPKLLIYKASNLHTGVPSRFSGSGSGTGFTLTISSLQPEDIATYYCQQAHSYPFTFGGGTKLEIKRTVAAPSVFIFPPSDEQLKSGTASVVCLLNNFYPREAKVQWKVDNALQSGNSQESVTEQDSKDSTYSLSSTLTLSKADYEKHKVYACEVTHQGLSSPVTKSFNRGEC
Take B18: in the assay with IL13 [7], the binding result is reported as “no binding”.

B19: Cross-over IL4(G4S2)IL13CH1-Fc / IL13(G4S)IL4CL (antibody)
chain 1: not shown
chain 2: B18 chain 2
As to B19, the binding result with IL13 [7] was “no binding”.
